T1: mArtemin-MMH (mouse)
T1 construct: also called msArtemin-MMH; msARTN.mmh
T1 chain: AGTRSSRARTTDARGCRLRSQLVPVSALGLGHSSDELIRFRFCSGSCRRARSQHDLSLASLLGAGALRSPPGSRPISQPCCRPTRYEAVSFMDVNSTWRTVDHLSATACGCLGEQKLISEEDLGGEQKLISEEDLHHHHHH

T2: MfArtemin-MMH (cynomolgous monkey (Macaca fascicularis))
T2 construct: also called mfARTN.mmh; mfARTN (A108-G22).mmh
T2 chain: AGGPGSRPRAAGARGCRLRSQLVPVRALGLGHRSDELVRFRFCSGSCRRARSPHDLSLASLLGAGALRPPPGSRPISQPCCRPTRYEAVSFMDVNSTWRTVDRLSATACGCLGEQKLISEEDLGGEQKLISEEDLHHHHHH

T3: hArtemin-MMH (human)
T3 construct: also called hARTN.mmh; hARTN (A108-G220).mmh
T3 chain: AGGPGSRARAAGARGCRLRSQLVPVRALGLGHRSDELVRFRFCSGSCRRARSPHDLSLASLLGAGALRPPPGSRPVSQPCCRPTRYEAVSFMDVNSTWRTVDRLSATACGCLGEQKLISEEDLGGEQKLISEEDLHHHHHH


Columns and labels:
mArtemin-MMH [1] = biological target: T1, mArtemin-MMH; assay: BLI (Octet HTX), mAb captured on AHC tips, artemin at 3.75 nM, 25 C
Description: (§1) The entire experiment was performed at 25° C. in 10 mM HEPES, 150 mM NaCl, 3 mM EDTA, 0.02% NaN3 and 0.05% v/v Surfactant Tween-20, 1 mg/mL BSA, pH7.4 (HBS-EBT) buffer with the plate shaking at a speed of 1000 rpm. Different Artemin mAbs were first captured onto anti-human antibody (AHC) coated Octet biosensor tips (Fortebio Inc, #18-5064) by submerging the biosensor tips for 40 seconds in wells containing 2 μg/mL of Artemin mAb. […] All the Artemin and Artemin mAb samples were prepared in HBS-EBT buffer. The real-time binding response was monitored during the entire course of the experiment and the binding response at the end of every step was recorded.

MfArtemin-MMH [2] = biological target: T2, MfArtemin-MMH; assay: as above
Description: as §1

hArtemin-MMH [3] = biological target: T3, hArtemin-MMH; assay: as above
Description: as §1

hArtemin-MMH [4] = biological target: T3, hArtemin-MMH; assay: SPR Biacore T200, hArtemin-MMH captured by anti-myc mAb, mAb injected, 25 C
Description: (§2) The equilibrium dissociation constant (KD) for Artemin binding to each of Artemin monoclonal antibodies (mAbs) H4H33331P, H4H33335P, H4H33336P, and H4H33349P was determined using a real-time surface plasmon resonance Biacore T200 biosensor. All binding studies were performed in 10 mM HEPES, 150 mM NaCl, 3 mM EDTA, and 0.05% v/v Surfactant Tween-20, pH 7.4 (HBS-ET) running buffer at 25° C. The Biacore CM4 sensor chip surface was first derivatized by amine coupling with anti-myc mAb to capture hArtemin-MMH, MfArtemin-MMH, or mArtemin-MMH. Different concentrations of Artemin mAbs (60-2.2 nM, 3-fold serial dilution) prepared in […] running buffer were injected over the Artemin-captured surfaces for 3 min at a flow rate of 50 μL/min and their dissociation in HBS-ET running buffer was monitored for 5 minutes. At the end of each cycle, the Artemin-captured surfaces were regenerated using a 6 sec injection of 20 mM phosphoric acid.
(§3) The association rate (kₐ) and dissociation rate (kd) were determined by fitting the real-time binding sensorgrams to a 1:1 binding model with mass transport limitation using Scrubber 2.0c curve-fitting software. Binding dissociation equilibrium constant (KD) and dissociative half-life (t½) were calculated from the kinetic rates as: KD (M)=kd/kₐ, and t_{1/2} (min)=[In2/(60*kd)].

hArtemin-MMH [5] = biological target: T3, hArtemin-MMH; assay: blocking ELISA, antibody blocks 75 pM hARTN.mmh binding to plate-coated hGFRa3.hFc
Description: (§4) Experiments were carried out using the following procedures. Plates were coated with hGFRa3.hFc at 2 μg/ml in PBS on a 96-well microtiter plate at 4° C. overnight for all three assays. […] In other microtiter plates, a constant amount of either 75 pM hARTN.mmh, 400 pM mfARTN.mmh, or 150 pM msARTN.mmh were separately bound with anti-ARTN antibodies and an irrelevant IgG4 antibody control at a serial dilution series from 0.0017 nM to 100 nM in PBS+0.5% BSA. After a one-hour incubation, the mixture solutions were transferred to microtiter plates coated with hGFRa3.hFc. After one hour of incubation at RT, the wells were washed with PBST, and plate-bound ARTN was detected with an anti-penta-His antibody conjugated with horseradish peroxidase (HRP) (Qiagen). The plates were then developed using TMB substrate solution (BD Biosciences, #555214) according to manufacturer's recommendation and absorbance at 450 nm was measured on a Victor X5 plate reader.
(§5) Binding data were analyzed using a sigmoidal dose-response model within Prism™ software (GraphPad). […] If the calculated IC50 value was below the LLOA, less than LLOA was reported. Percent blocking at 100 nM antibody was calculated based on the background-corrected binding signal observed at the highest antibody concentration tested using the formula listed below and reported for all tested antibodies: […]

mArtemin-MMH [6] = biological target: T1, mArtemin-MMH; assay: blocking ELISA, antibody blocks 150 pM msARTN.mmh binding to plate-coated hGFRa3.hFc
Description: as §4, §5

mArtemin-MMH [7] = biological target: T1, mArtemin-MMH; assay: cell-based or functional assay
MfArtemin-MMH [8] = biological target: T2, MfArtemin-MMH; assay: cell-based or functional assay
hArtemin-MMH [9] = biological target: T3, hArtemin-MMH; assay: cell-based or functional assay
mArtemin-MMH [10] = biological target: T1, mArtemin-MMH; assay: BLI (Octet HTX), mAb captured on AHC tips, artemin at 30 nM, 25 C
Description: as §1

hArtemin-MMH [11] = biological target: T3, hArtemin-MMH; assay: as above
Description: as §1

MfArtemin-MMH [12] = biological target: T2, MfArtemin-MMH; assay: SPR Biacore T200, MfArtemin-MMH captured by anti-myc mAb, mAb injected, 25 C
Description: as §2, §3

| Artemin Binding Response (nm) (mArtemin-MMH [1]) | Artemin Binding Response (nm) (MfArtemin-MMH [2]) | Artemin Binding Response (nm) (hArtemin-MMH [3]) | 60 nM Artemin mAb Bound (RU) (hArtemin-MMH [4]) | Kd (hArtemin-MMH [4]) [pM] | koff (hArtemin-MMH [4]) [s⁻¹] | kon (hArtemin-MMH [4]) [M⁻¹ s⁻¹] | t½ (hArtemin-MMH [4]) [h] | % Blocking with 100 nM Ab (hArtemin-MMH [5]) [%] | IC50 (hArtemin-MMH [5]) [pM] | % Blocking with 100 nM Ab (mArtemin-MMH [6]) [%] | Max inhibition (%), SRE-luciferase reporter, 1 nM mArtemin (mArtemin-MMH [7]) [%] | Max inhibition (%), SRE-luciferase reporter, 3 nM mfArtemin (MfArtemin-MMH [8]) [%] | Max inhibition (%), SRE-luciferase reporter, 500 pM hArtemin (hArtemin-MMH [9]) [%] | Artemin Binding Response (nm) (mArtemin-MMH [10]) | Artemin Binding Response (nm) (hArtemin-MMH [11]) | 60 nM Artemin mAb Bound (RU) (MfArtemin-MMH [12]) | Kd (MfArtemin-MMH [12]) [pM] | koff (MfArtemin-MMH [12]) [s⁻¹] | kon (MfArtemin-MMH [12]) [M⁻¹ s⁻¹] | Binder | also measured |
| --- | --- | --- | --- | --- | --- | --- | --- | --- | --- | --- | --- | --- | --- | --- | --- | --- | --- | --- | --- | --- | --- |
| 0.07 | 0.02 | 0.07 | 18 | 119 | 5.9e-05 | 497000 | 3.27 | 95 | 128 | 88 | 100 | 100 | 100 | 0.11 | 0.11 | 14 | 210 | 9.6e-05 | 457000 | H4H33349P (antibody, human IgG4 S228P, kappa, V domains shown, Fully human antibody; also called Artemin mAb; anti-ARTN antibody) VH: QVQLVESGGGVVQPGRSLRLSCEASGFTFSDYDLHWVRQAPGKGLEWVAFISNDGSNEYYPKSVKGRFSISRDNSKNTLYLQMNSLRAEDTAVYHCTKERDYYYDSSGSLDYWGQGTLVTVSS VL: DIQMTQSPSSLSASVGDRVTITCRASQTINNYLNWYQQKPGKAPKLLIYTTSGLQSGVPSRFSGRGSGTDFTLAISSLQPEDFATYYCQQSYHSPFTFGPGTKVDIKR | t½ (MfArtemin-MMH [12]): 2 h |
| 0.03 | 0 | 0.02 | 7 | 2910 | 0.000366 | 126000 | 0.533 | 88 | 380 | 83 | 100 | 100 | 100 | 0.1 | 0.11 | 5 | 1510 | 0.000199 | 131000 | H4H33331P (antibody, human IgG4 S228P, kappa, V domains shown, Fully human antibody (human variable and constant domains) from a VELOCIMMUNE mouse; also called Artemin mAb; anti-ARTN antibody) VH: EVQLVESGGDLVQPGGSLKLSCAASGFTFSGSAMHWVRQASGKGLEWVGRIRNKVHRYATEYGASVKGRFTISRDDSKNTAYLQMNSLKIEDTAVYYCVVVVPGSIEAFDIWGQGTMVTVSS VL: DIQMTQSPSSLSASVGDRVTITCRASQSISTYLNWYQQKPGKAPNLLIYAASTLESGVPSRFSGSGSGTDFTLTISSLQPEDFEIYYCQQSYNIPWTFGQGTKVEIKR | t½ (MfArtemin-MMH [12]): 0.967 h |
| 0.01 | 0.01 | 0.03 | 15 | 150 | 3.75e-05 | 249000 | 5.13 | 93 | 161 | 81 | 100 | 100 | 100 | 0.03 | 0.12 | 11 | 111 | 2.3e-05 | 207000 | H4H33336P (antibody, human IgG4 S228P, kappa, V domains shown, Fully human antibody; also called Artemin mAb; anti-ARTN antibody) VH: QVQLVESGGGVVQPGRSLRLSCVASGFILSHYGMHWVRQAPGKGLEWVAVIWFDGTNKYYADSVKGRFTVSRDNSKNTLYMQMNSLRAEDTAVYYCARDPPPARRGNYNGMDVWGQGTTVTVSS VL: DIQMTQSPSSLSASVGDRVTITCRASQDIRNDLGWYQQKPGKAPKRLIFGASSLQSGVPLRFSGSGSGTEFTLTINNLQPEDFATFYCLQDNSYPWTFGQGTKVEIKR | IC50 (mArtemin-MMH [6]): 410 pM; t½ (MfArtemin-MMH [12]): 8.37 h |

Reference: US20240352111A1 (Regeneron, published 2024)
